Assay results published in patent publication US8173771B2, “Humanin receptor or humanin-like polypeptide receptor” (Keio Univeristy, priority 2005, dated 2012).
Residue numbers refer to the chain shown, from its start. Names and notes keep the numbering of the source.

What was measured:
[1] = test system: primary cortical neurons (PCNs); test: Aβ neurotoxicity in primary cortical neurons, WST-8 / Calcein / LDH; assay type: cell-based, mouse
Method in brief: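 Primary cortical neurons from E14 ICR mice, in DMEM with N2 supplement, received 25 μM Aβ(1-42) on day 4 in vitro together with HN or cytokines, with or without soluble receptors or neutralizing antibodies. Viability was read by WST-8 or Calcein at 72 h, and mortality by LDH or Trypan blue.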

PCN cells = molecular target: T1, PCN cells (Mus musculus, UniProt O70394+O88507); test: Immunofluorescence-based binding assay (2) on PCN, competition with unlabeled cytokines; conditions: similar range as IL-27; 10 nM biotin-HNG
T1 construct: endogenous in cells; host or cells: mouse primary cortical neurons (PCN), E14 ICR mice
T1 sequence (O70394 25-623): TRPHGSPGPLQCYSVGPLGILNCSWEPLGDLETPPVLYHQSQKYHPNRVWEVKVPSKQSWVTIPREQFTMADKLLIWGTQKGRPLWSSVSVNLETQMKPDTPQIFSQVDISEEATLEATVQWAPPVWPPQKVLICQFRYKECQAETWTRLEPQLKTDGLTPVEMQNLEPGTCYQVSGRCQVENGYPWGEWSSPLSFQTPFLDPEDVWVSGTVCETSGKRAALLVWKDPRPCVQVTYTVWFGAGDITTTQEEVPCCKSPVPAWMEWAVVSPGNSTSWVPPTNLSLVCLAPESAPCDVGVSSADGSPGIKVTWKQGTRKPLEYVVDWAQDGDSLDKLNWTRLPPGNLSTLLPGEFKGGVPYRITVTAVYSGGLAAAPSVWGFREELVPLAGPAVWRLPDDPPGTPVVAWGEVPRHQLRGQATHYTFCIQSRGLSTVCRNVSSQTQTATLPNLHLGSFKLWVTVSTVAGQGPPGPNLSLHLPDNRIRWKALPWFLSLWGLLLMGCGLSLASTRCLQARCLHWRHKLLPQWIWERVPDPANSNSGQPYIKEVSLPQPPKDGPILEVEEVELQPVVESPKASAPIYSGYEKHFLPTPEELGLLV
T1 sequence (O88507 23-342 limits assumed): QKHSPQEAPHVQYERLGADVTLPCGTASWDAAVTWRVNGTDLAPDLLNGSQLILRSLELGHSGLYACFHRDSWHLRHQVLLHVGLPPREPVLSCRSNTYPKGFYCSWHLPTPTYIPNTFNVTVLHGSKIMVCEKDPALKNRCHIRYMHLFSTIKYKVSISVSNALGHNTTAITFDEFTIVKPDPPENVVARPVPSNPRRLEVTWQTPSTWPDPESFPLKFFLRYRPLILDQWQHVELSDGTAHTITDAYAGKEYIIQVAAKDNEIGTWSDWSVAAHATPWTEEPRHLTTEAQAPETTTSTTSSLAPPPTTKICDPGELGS
T1 sequence (Q00560 23-917 partner): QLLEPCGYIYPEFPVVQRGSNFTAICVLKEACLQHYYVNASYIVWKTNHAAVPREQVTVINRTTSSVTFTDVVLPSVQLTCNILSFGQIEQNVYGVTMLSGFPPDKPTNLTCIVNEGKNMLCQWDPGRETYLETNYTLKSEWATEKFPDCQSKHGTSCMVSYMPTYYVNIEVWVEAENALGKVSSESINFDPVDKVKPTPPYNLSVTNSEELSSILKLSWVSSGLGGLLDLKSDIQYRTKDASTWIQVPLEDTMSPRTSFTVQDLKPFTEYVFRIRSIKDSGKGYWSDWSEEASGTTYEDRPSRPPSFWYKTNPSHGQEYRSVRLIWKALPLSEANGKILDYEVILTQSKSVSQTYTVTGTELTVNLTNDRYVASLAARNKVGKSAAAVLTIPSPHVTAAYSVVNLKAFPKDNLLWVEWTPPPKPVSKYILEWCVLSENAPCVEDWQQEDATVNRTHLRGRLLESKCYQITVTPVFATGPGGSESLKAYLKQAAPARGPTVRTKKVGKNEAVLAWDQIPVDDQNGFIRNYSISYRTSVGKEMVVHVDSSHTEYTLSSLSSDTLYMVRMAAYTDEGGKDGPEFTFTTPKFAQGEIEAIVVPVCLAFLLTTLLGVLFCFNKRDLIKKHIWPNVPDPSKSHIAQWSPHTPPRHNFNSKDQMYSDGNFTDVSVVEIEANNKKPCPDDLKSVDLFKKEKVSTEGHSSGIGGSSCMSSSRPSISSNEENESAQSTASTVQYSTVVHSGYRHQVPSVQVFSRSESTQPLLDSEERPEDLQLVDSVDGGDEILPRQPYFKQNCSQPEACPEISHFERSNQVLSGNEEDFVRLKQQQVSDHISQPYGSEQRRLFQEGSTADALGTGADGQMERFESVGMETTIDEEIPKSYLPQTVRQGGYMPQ
Method: (§1) After 6 hrs incubation, they were fixed with 4% paraformaldehyde in PBS for 30 min. After washing with PBS, cells were stained with FITC-conjugated avidin (Molecularprobe, Eugene, Oreg., USA). Immunofluorescence intensity was measured (excitation=485 nm, emission=535 nm) with a spectrofluorometer (Wallac1420 ARVOsx Multi Label Counter). Immunohistochemical analysis was done with a laser-scanning, confocal microscope LSM (Carl Zeiss, Germany).

[2] = molecular target: T2, Humanin receptor (HNR) overexpressed in F11 cells: human CNTF-R/WSX-1/gp130 (human, UniProt P26992 23-342; Q6UWB1 33-636; P40189 23-918); test: cold competitor in binding assay (2), F11 cells transfected with human CNTF-R/WSX-1/gp130
T2 construct: whole, on cells; The three human subunits co-transfected into F11 cells, which also carry the endogenous receptor; also called both the CNTF receptor and WSX-1; not shown: C-terminal V5 tag; C-terminal myc-His tag
T2 sequence (P40189 23-918, one chain of several): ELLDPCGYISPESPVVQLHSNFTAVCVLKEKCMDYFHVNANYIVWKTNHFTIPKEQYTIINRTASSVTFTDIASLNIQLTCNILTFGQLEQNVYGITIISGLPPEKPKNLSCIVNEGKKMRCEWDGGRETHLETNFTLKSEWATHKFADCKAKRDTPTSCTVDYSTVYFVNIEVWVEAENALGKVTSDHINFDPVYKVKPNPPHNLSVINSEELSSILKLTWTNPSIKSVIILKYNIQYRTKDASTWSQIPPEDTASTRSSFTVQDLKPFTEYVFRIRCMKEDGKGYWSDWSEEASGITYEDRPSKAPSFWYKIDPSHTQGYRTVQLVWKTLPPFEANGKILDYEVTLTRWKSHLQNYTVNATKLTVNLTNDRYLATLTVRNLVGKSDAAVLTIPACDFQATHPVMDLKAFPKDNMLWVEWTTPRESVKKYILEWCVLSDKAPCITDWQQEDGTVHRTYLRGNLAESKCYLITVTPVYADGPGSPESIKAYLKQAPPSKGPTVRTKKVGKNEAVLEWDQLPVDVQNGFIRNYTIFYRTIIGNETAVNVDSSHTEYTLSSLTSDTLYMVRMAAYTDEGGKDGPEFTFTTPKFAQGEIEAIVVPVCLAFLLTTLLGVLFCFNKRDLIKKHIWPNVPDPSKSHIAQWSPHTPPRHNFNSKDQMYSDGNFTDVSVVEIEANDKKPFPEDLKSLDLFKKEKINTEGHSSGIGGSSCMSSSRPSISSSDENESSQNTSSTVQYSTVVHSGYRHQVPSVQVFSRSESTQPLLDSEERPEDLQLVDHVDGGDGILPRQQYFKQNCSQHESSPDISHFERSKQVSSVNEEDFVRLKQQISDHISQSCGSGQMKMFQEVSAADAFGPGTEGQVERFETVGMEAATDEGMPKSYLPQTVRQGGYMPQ
Method: A) F11 cells were seeded on 96-well plates coated with poly-L-lysine (7 ×10^3 cells/well). […] On the other hand, F11 cells were transfected with 0.5 μg of pcDNA3.1/GS-human CNTF-R, pEF1/MycHis-human WSX-1, and 1.0 μg of pCAG-human gp130. At 24 hrs after the transfection, the cells were re-seeded on 96-well plates coated with poly-L-lysine (7 ×10^3 cells/well).
as §1, with “F11 cells (7×10^4/well in 6-well plates) were replated into 96-well plates (7×10^3 cells/well) at 24 hrs after transfection with indicated amounts of the plasmids encoding mycHis-WSX or V5-CNTF-R, and with PCAG-human gp130 if required. […] After 6” for “After 6”

rat IL-6R [3] = molecular target: T3, rat IL-6R (rat, UniProt P22273 20-462); test: pull-down with HN-Sepharose 4B from lysates of transfected F11 cells, immunoblot
T3 construct: Overexpressed in F11 cells; stood in the cell lysate in the pull-down assay; also called IL-6 receptor; rat IL-6R (V6 tagged); not shown: printed as 'V6 tagged'
T3 sequence (looked up): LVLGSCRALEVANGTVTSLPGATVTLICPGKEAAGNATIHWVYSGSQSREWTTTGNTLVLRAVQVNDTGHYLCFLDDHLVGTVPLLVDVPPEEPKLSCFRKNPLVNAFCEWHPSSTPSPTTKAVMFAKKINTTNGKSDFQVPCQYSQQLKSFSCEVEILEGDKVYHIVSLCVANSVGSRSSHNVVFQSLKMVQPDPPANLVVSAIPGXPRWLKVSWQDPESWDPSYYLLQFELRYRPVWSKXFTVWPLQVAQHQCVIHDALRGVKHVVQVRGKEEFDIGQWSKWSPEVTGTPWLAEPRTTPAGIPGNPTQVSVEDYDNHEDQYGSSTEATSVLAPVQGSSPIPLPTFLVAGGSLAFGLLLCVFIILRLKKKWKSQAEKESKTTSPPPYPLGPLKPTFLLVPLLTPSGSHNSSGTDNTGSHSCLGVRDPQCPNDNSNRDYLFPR
Method: (§2) WSX-1, CNTF-R, and IL-6 were over-expressed in F11 cells and the pull down assay was made using the above 4B bead.
(§3) F11 cells (7×10^4/well in 6-well plates) were transfected with the plasmids encoding mycHis-WSX-1, V5-CNTF-R or rat IL-6R (V6 tagged). […] The beads were then reacted with a blocking buffer (0.2M glycine, pH 8.0) for 2 hrs at a room temperature, washed with the coupling buffer and stored at 4° C. for use in pull-down assay. For each pull-down assay, 20 μl of 1:1 slurry of Sepharose was used for 100 μl of the cell lysate.

rat IL-6R [4] = molecular target: T3, rat IL-6R; test: pull-down with HNA-Sepharose 4B from lysates of transfected F11 cells, immunoblot
Method: as §2, §3

[5] = molecular target: T4, C-terminally myc-tagged human WSX-1 (mycHis-WSX-1) (human, UniProt Q6UWB1 33-636); test: as above
T4 construct: whole, on cells; in the pull-down and co-immunoprecipitation it stood in cell lysates; also called myc-WSX-1; IL-27 receptor; not shown: C-terminal myc-His tag of the pEF-mycHis vector
T4 sequence (looked up): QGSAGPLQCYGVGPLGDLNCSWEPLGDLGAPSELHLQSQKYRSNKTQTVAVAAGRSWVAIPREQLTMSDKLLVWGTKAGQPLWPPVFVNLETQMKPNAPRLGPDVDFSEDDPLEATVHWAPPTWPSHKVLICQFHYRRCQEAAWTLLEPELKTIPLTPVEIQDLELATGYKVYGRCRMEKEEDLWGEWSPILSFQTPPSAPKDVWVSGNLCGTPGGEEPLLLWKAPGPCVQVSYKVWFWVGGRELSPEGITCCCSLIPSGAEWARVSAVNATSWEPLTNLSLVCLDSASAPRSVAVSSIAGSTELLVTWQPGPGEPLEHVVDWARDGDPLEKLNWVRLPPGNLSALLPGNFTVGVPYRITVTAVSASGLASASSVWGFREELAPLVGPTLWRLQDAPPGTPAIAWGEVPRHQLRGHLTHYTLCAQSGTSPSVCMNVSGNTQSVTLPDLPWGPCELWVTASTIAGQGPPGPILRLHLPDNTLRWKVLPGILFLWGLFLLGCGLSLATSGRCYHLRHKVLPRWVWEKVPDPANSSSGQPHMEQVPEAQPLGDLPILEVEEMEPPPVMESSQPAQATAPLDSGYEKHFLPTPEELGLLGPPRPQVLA
Method: as §2, §3

[6] = molecular target: T5, C-terminally V5-tagged human CNTF-R (V5-CNTF-R) (human, UniProt P26992 23-342); test: as above
T5 construct: whole, on cells; in the pull-down and co-immunoprecipitation it stood in cell lysates; also called human CNTF receptor; CNTF receptor alpha chain; not shown: C-terminal V5 tag
T5 sequence (looked up): T1 sequence (O88507 23-342 limits assumed) with K2R, A18S, S28N, I53V, R55H, S56G, T169A, P294A
Method: as §2, §3

B1: IL-6: interleukin-6, recombinant cytokine (protein, UniProt P20607 25-211, looked up)
Interleukin-6: FPTSQVRRGDFTEDTTHNRPVYTTSQVGGLITYVLREILEMRKELCNGNSDCMNSDDALSENNLKLPEIQRNDGCFQTGYNQEICLLKICSGLLEFRFYLEFVKNNLQDNKKDKARVIQSNTETLVHIFKQEIKDSYKIVLPTPTSNALLMEKLESQKEWLRTKTIQLILKALEEFLKVTMRSTRQT
[1]; cytokine 100 ng/ml with its soluble receptor (sIL-6R or soluble CNTF receptor) 100 ng/ml
  mimicry of HN in neuroprotection against neuronal cell death by Aβ: completely mimicked HN
[1]; cytokine alone, physiological levels (up to 100 ng/ml), 25 μM Aβ
  inhibition of neurotoxicity by Aβ: did not inhibit
PCN cells
  inhibition of the binding of HN to PCN: did not show such effect

B2: Humanin (HN) (peptide)
peptide: MAPRGFSCLLLLTSEIDLPVKRRA
notes: Synthetic 24-residue peptide; elsewhere it was used free and unlabeled; also called synthetic Humanin
[2]
  binding result: binds
Rat IL-6R [3]
  binding result: no binding

B3: C8A-Humanin (HNA) (peptide)
peptide: MAPRGFSALLLLTSEIDLPVKRRA
notes: Synthetic peptide, HN mutant with null activity used as negative control; also called C8A-HN
Rat IL-6R [4]
  binding result: no binding
[5]
  binding result: no binding
[6]
  binding result: no binding
